Tests used:
β-Amyloid (1-42) = β-Amyloid (1-42) (Homo sapiens, UniProt P05067); assay: β-Amyloid (1-42) fibrillation assay (ThT binding to amyloid); type: biochemical; details: 50 μM β-Amyloid plus 50 μM peptide; time range of 60-240 min; three replicates
Description: FIGS. 21A-21C show inhibition of β-Amyloid (1-42) fibrillation by C- (C-pep) and Cα-peptides (Cα-pep). […] FIG. 21B is a box-whisker plot on C- and Cα-pep inhibition of β-Amyloid fibrillation in time range of 60-240 min. […] Fluorescence intensity (F.I.) represents ThT binding to amyloid. AUC represents area under curve calculated by Trapezoid rule. Aβ(1-42) represents 50 μM β-Amyloid plus buffer, C-pep represents 50 μM β-Amyloid plus 50 μM C-pep, and Cα-pep represents 50 μM β-Amyloid plus 50 μM Cα-pep.
Thioflavin T (ThT) was from MilliporeSigma (catalog number T3516; Rockville, MD). IAPP (37 AA) (catalog number LT110006) (amidated C-terminal and disulfide bridge between Cys2 and Cys7) was from LifeTein (Hillsborough, NJ), and C-peptide (catalog number AS-61127) was from AnaSpec (Fremont, CA). Cα-peptide was custom made (Genemed Synthesis, Inc., San Antonio, TX). Black 96-well microplates (chimney well) were from Greiner Bio-One (Frickenhausen, Germany). […] Amyloid kinetics were measured by increasing ThT fluorescent amyloid binding intensity (1ex 440 nm; 1em 485 nm; height 3 mm; flashes 12) for 36 cycles, 5 min per cycle, at 37° C. with 15 s of shaking (100 rpm) between the reads in the EnSpire Multimode Plate Reader (PerkinElmer, Inc., Waltham, MA).

IAPP = molecular target: T1, IAPP (Homo sapiens, UniProt P10997); assay: IAPP aggregation assay (Thioflavin T fluorescence); type: biochemical; details: 50 mmol/L IAPP plus 50 mmol/L peptide; 37° C.; range of 90-130 min; three replicates
T1 construct: IAPP (37 AA) (catalog number LT110006) (amidated C-terminal and disulfide bridge between Cys2 and Cys7) was from LifeTein; purchased LifeTein (Hillsborough, NJ) LT110006
T1 sequence (P10997 34-70 limits assumed): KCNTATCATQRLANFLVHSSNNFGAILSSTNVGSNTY
Description: Thioflavin T (ThT) was from MilliporeSigma (catalog number T3516; Rockville, MD). IAPP (37 AA) (catalog number LT110006) (amidated C-terminal and disulfide bridge between Cys2 and Cys7) was from LifeTein (Hillsborough, NJ), and C-peptide (catalog number AS-61127) was from AnaSpec (Fremont, CA). Cα-peptide was custom made (Genemed Synthesis, Inc., San Antonio, TX). Black 96-well microplates (chimney well) were from Greiner Bio-One (Frickenhausen, Germany). Soluble and monomeric IAPP was made according to published protocols (Stine et al., Methods Mol. Biol. 670:13-32, 2011; Tu et al., Biochemistry 54:666-676, 2015), and the AnaSpec Manual of SensoLyte Thioflavin T Aggregation Kit (catalog number AS-72214) was used for the IAPP aggregation assay, with final concentration of 1% DMSO and […] ThT in component A buffer. The buffer was used as blank and IAPP without inhibitors, and the final concentration of IAPP and C- and Cα-peptides was […] each in the inhibition assays. Amyloid kinetics were measured by increasing ThT fluorescent amyloid binding intensity (1ex 440 nm; 1em 485 nm; height 3 mm; flashes 12) for 36 cycles, 5 min per cycle, at 37° C. with 15 s of shaking (100 rpm) between the reads in the EnSpire Multimode Plate Reader (PerkinElmer, Inc., Waltham, MA).

Sequence of β-Amyloid (1-42) (P05067 672-713 limits assumed): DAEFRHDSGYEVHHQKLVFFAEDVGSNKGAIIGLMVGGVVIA

Substance | inhibition of β-Amyloid fibrillation (ThT fluorescence intensity, AUC) (β-Amyloid (1-42)) | inhibition of IAPP fibrillation (ThT fluorescence intensity, AUC) (IAPP)
C-peptide: classical 31-AA human insulin C-peptide, AnaSpec catalog number AS-61127 (EAEDLQVGQVELGGGPGAGSLQPLALEGSLQ) | not | inhibition of IAPP fibrillation
EAEDLQGSLQPLALEGSLQ (C-alpha peptide; listed as Homo sapiens) [Cα-peptide, human 19-AA insulin C-peptide variant encoded by INS3B isoform; custom made by Genemed Synthesis] | inhibits | inhibited IAPP fibrillation more efficiently than C-peptide

Reference: patent US20240190937A1, “HUMAN INSULIN C-ALPHA-PEPTIDES AND METHODS OF USE” (The United States of America, as represented by the …, priority 2021, published 2024)
